Experimental data as given in PMC6684798, “Structural basis for the target specificity of actin histidine methyltransferase SETD3” (Nature Communications, 2019).

Biological target: T1, SETD3 (Homo sapiens, UniProt Q86TU7)
T1 construct: GST (cleaved yes); made in house; host or cells: Escherichia coli BL21(DE3) CodonPlus
T1 sequence (Q86TU7 1-594): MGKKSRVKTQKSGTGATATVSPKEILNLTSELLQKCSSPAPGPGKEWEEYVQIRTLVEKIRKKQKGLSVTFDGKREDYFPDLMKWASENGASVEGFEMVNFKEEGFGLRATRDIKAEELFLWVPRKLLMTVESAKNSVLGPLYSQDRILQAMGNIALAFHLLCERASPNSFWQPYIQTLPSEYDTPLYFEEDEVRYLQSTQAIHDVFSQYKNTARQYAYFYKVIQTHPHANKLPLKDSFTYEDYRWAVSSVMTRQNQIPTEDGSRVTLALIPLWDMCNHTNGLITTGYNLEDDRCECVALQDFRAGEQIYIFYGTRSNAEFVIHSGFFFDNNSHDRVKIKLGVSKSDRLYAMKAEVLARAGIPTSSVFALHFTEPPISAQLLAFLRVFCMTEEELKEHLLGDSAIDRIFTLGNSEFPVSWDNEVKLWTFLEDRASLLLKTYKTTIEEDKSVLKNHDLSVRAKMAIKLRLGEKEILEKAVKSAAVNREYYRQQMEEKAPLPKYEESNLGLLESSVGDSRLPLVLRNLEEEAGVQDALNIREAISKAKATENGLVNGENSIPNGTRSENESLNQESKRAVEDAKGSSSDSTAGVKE
Assay: SETD3 activity time course under conditions optimized for H73(66-80) (Supplementary Fig. 3a)
Format: biochemical
Settings: pH 8.0, room temperature; for CH3 transferred: [E]=0.18 µM, [SAM]=40 µM, [S]=20 µM
Method: Recombinant human SETD3 (pXC2003) was expressed as a GST-fusion[22] in Escherichia coli BL21(DE3) CodonPlus^TM cells (Stratagene). The SETD3 mutants at residue 255 (N255A; pXC2093 and N255V; pXC2094) were generated with Q5 Site-Directed Mutagenesis Kit (New England Biolabs), confirmed by sequencing and the same protocol for expression and purification were followed. Briefly, the purification was conducted in a BIO-RAD NGC^TM system using a three-column chromatography of glutathione-sepharose, HiTrap Q-HP and Superdex 200. The GST tag was removed by PreScisson Protease (purified in-house). The purified SETD3 proteins at a concentration ~25–35 mg/ml were kept at −80 °C in storage buffer for future use [20 mM Tris (pH 8.0), 200 mM NaCl, 5% glycerol, and 0.5 mM tris (2-carboxyethyl) phosphine (TCEP)]. […]
conditions optimized for H73(66-80) (red line): [E]=0.18 µM, [SAM]=40 µM, [S]=20 µM, pH 8.0 at room temperature for indicated reaction time. b, SETD3 activity on H73(66-80) at two difference temperatures under the conditions of [E]=0.18 µM, [SAM]=40 µM, [SH7 3]=20 µM at pH 8. 0 for 20 min reaction. c, SETD3 activity on K73 (66-80 ) at room temperature (~22 °C) and 37 °C under the conditions of increased amounts of [E]=15 µM, [SAM]=100 µM and [S K73]=700 µM at pH 8.0 for overnight reaction. Data represent the mean ± SD of N number of independent determinations (N=2 in panels a and b and N=4 in panel c) performed in duplicate. […]

## K73(66–80): K73-containing (H73K) actin peptide, residues 66–80 (TLKYPIEKGIVTNWD; UniProt P60709 66-80, looked up, variant H73K)
0 min, replicate 1
  CH3 transferred: 0 µM
0 min, replicate 2
  CH3 transferred: 0 µM
10 min, replicate 1
  CH3 transferred: 0.00913 µM
10 min, replicate 2
  CH3 transferred: 0.005151 µM
20 min, replicate 1
  CH3 transferred: 0.005187 µM
20 min, replicate 2
  CH3 transferred: 0.000604 µM
30 min, replicate 1
  CH3 transferred: 0.002842 µM
30 min, replicate 2
  CH3 transferred: -0.00142 µM
[E] = 0.18 µM, [SAM] = 40 µM, [S] = 20 µM
  SETD3 activity under conditions optimized for H73 peptide: no activity
